Test results: patent US20190275125A1 (H LUNDBECK A S, published 2019)

How the values were obtained:
Assay in all cases: MSD inhibition assay, abeta 1-28 coated plates
[1] = biological target: T1, abeta 1-12 trimer construct (UniProt P05067 672-683; P05067 672-683; P05067 672-683)
T1 construct: range 1-12
T1 sequence (peptide): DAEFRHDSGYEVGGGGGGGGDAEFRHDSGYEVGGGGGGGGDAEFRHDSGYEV

Met-var24 = biological target: Met-var24
Var24 = biological target: Var24

Measured: binding result

B1: Biosimilar (BS) bapineuzumab (antibody, V domains shown)
VH: EVQLVESGGGLVQPGGSLRLSCAGSGFTFSNYGMSWVRQAPGKGLEWVASIRSGGGRTYYSDNVKGRFTISRENAKNSLYLQMNSLRAEDTAVYYCVRYDHYSGSSDYWGQGTLVTVSS
VL: DVVMTQSPLSLPVTLGQPASISCKSSQSLLDSDGKTYLNWLQQRPGQSPRRLIYLVSKLDSGVPDRFSGSGSGTDFTLKISRVEAEDVGVYYCWQGTHFPRTFGGGTKVEIKR
binds: all assays above
